Experimental findings from patent US20090188010A1 are described below.

The target in assay [1] is NaPI-insensitive chymotrypsin from H. punctigera (HpCh5), native enzyme from the larval gut (Helicoverpa punctigera). The assay is described as follows: cell-based or functional assay.
The target of assay [2] is chymotrypsins in unfractionated gut extracts from H. punctigera larvae. The assay is described as follows: cell-based or functional assay.

Chain of NaPI-insensitive chymotrypsin from H. punctigera (HpCh5), native enzyme from the larval gut (Helicoverpa punctigera) (chain, as listed by the source limits assumed): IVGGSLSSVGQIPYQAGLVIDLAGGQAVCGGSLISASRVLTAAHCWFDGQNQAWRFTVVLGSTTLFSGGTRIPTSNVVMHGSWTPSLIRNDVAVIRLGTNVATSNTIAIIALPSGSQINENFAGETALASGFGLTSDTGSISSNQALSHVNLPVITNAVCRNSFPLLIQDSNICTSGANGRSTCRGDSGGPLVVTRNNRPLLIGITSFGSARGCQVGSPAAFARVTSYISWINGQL

B1: StPotIA, bacterially expressed with N-terminal 6xHis-tag (protein, not shown: small tags and cut ends)
chain: KESESESWCKGKQFWPELIGVPTKLAKEIIEKENPSINDVPIILNGTPVPADFRCNRVRLFDNILGDVVQIPRVA
In assay [1], B1 gave an inhibition of SA2PFpNA or SA2PLpNA hydrolysis at 300 nM inhibitor greater than 75% and an inhibition of SA2PMpNA hydrolysis of 40%.

B2: recombinant C1 inhibitor with N-terminal hexahistidine tag, expressed in E. coli (protein, not shown: small tags and cut ends)
chain: DRICTNCCAGTKGCKYFSDDGTFVCEGESDPRNPKACTLNCDPRIAYGVCPRSEEKKN
Turning to B2, the inhibition of gut chymotrypsin activity, unfractionated gut extract (FIG. 3) in assay [2] was 70%.

B3: StPotIB, bacterially expressed with N-terminal 6xHis-tag (protein, not shown: small tags and cut ends)
chain: KEFECNGKQFWPELIGVPTKLAKEIIEKENSLINNVQILLNGSPVTMDYRCNRVRLFDNILGSVVQIPRVA
On to B3, for which, in assay [1], the inhibition of SA2PFpNA or SA2PLpNA hydrolysis at 300 nM inhibitor is greater than 75% and the inhibition of SA2PMpNA hydrolysis is 40%.
